Measurements taken from publication PMC4678814 (Nucleic Acids Research, 2015).

Assays:
[1] = biological target: GST-tagged ChYtm1 (Chaetomium thermophilum) (UniProt G0SFB5); test: BLI
[2] = biological target: T1, 6xHis-tagged ChYtm1 (Ytm1 from Chaetomium thermophilum) (Chaetomium thermophilum, UniProt G0SFB5 1-495); test: ITC
T1 sequence (looked up): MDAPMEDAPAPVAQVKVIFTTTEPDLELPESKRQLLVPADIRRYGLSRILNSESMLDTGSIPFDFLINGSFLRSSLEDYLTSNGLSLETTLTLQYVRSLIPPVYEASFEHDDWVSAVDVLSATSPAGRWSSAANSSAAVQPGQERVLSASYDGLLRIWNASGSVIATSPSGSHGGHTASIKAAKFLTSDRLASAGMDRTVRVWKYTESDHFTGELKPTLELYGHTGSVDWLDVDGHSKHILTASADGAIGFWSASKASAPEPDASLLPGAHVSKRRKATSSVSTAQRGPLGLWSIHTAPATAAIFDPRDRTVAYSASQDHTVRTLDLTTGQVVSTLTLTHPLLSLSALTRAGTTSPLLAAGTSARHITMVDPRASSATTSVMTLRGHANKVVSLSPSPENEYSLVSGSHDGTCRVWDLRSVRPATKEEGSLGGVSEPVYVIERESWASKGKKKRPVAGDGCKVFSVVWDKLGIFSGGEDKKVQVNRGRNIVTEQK

6xHis-ChErb1[R486E], full-length (from UniProt G0SCK6 1-801) (natural protein)
fold loss of affinity (KD) against the ChErb1-ChYtm1 interaction [1]: 100 fold

ChErb1 R486A mutant (from UniProt G0SCK6 1-801) (natural protein)
Kd [1]: 7 nM

B1: 6xHis-ChErb1_(432–801) (β-propeller domain of ChErb1) (domain or fragment, Chaetomium thermophilum, UniProt G0SCK6 432-801, looked up)
chain: LPSPDELKPFPTVQQTIFRGHEGRVRSVAIDPTGVALATGGDDGTVRVWELLTGRQVWSVKLNGDEAVNTVRWRPTKDTFILAAAAGEDIFLMIPTHPSVTPALDQASRDILNAGFGHATNGKQQANLPPGKEPPGKWARPGTRLEDEGVLLRITVRSTIKAISWHRRGDHFATVSPSGQRSSVAIHTLSKHLTQIPFRKLNGLAQTASFHPLRPLFFVATQRSIRCYDLQKLELVKIVQPGAKWISSFDVHPGGDNLVVGSYDKRLLWHDLDLSNRPYKTMRFHTEAIRAVRFHKGGLPLFADASDDGSLQIFHGKVPNDQLENPTIVPVKMLKGHKVVNKLGVLDIDWHPREPWCVSAGADGTARLWM
Kd [2]: ~9 nM
